Assay results: paper PMC11189300 (2024)

Columns and labels:
Assay in all cases: ITC
KNL1^M2 = KNL1^M2 (human, UniProt Q8NG31)
KNL1^M1 = KNL1^M1 (human, UniProt Q8NG31)
SPC24/SPC25^L154A-L176A = SPC24/SPC25^L154A-L176A (human, UniProt Q8NBT2 1-197; Q9HBM1 1-224, L154A | L176A)
SPC24^Y138A/SPC25 = SPC24^Y138A/SPC25 (human, UniProt Q8NBT2 1-197; Q9HBM1 1-224, Y138A)

- Kd (KNL1^M2): 109 nM
- Kd (KNL1^M1): 140 nM
- Kd (SPC24/SPC25^L154A-L176A): 1270 nM
- Kd (SPC24^Y138A/SPC25): 295 nM
B1: Mis12 complex (Mis12C), full length: MIS12, PMF1, NSL1, DSN1 (complex)
chain 1: MSVDPMTYEAQFFGFTPQTCMLRIYIAFQDYLFEVMQAVEQVILKKLDGIPDCDISPVQIRKCTEKFLCFMKGHFDNLFSKMEQLFLQLILRIPSNILLPEDKCKETPYSEEDFQHLQKEIEQLQEKYKTELCTKQALLAELEEQKIVQAKLKQTLTFFDELHNVGRDHGTSDFRESLVSLVQNSRKLQNIRDNVEKESKRLKIS
chain 2: MAEASSANLGSGCEEKRHEGSSSESVPPGTTISRVKLLDTMVDTFLQKLVAAGSYQRFTDCYKCFYQLQPAMTQQIYDKFIAQLQTSIREEISDIKEEGNLEAVLNALDKIVEEGKVRKEPAWRPSGIPEKDLHSVMAPYFLQQRDTLRRHVQKQEAENQQLADAVLAGRRQVEELQLQVQAQQQAWQALHREQRELVAVLREPE
chain 3: MAGSPELVVLDPPWDKELAAGTESQALVSATPREDFRVRCTSKRAVTEMLQLCGRFVQKLGDALPEEIREPALRDAQWTFESAVQENISINGQAWQEASDNCFMDSDIKVLEDQFDEIIVDIATKRKQYPRKILECVIKTIKAKQEILKQYHPVVHPLDLKYDPDPAPHMENLKCRGETVAKEISEAMKSLPALIEQGEGFSQVLRMQPVIHLQRIHQEVFSSCHRKPDAKPENFITQIETTPTETASRKTSDMVLKRKQTKDCPQRKWYPLRPKKINLDT
chain 4: MTSVTRSEIIDEKGPVMSKTHDHQLESSLSPVEVFAKTSASLEMNQGVSEERIHLGSSPKKGGNCDLSHQERLQSKSLHLSPQEQSASYQDRRQSWRRASMKETNRRKSLHPIHQGITELSRSISVDLAESKRLGCLLLSSFQFSIQKLEPFLRDTKGFSLESFRAKASSLSEELKHFADGLETDGTLQKCFEDSNGKASDFSLEASVAEMKEYITKFSLERQTWDQLLLHYQQEAKEILSRGSTEAKITEVKVEPMTYLGSSQNEVLNTKPDYQKILQNQSKVFDCMELVMDELQGSVKQLQAFMDESTQCFQKVSVQLGKRSMQQLDPSPARKLLKLQLQNPPAIHGSGSGSCQ
